Reference: patent US20050058640A1 (BAXTER INTERNATIONAL, published 2005)
Each block holds one molecule with its values, some of them ahead of it.

Assays:
[1] = molecular target: factor VIII / factor VIIIa (recombinant human coagulation factor VIII, thrombin-activated) (UniProt P00451)
human factor IXa [2] = molecular target: T1, human factor IXa (human, UniProt P00740 47-191; P00740 227-461); experiment: SPR (BIACORE), antibody captured by anti-mouse Fc on CM5 chip, FIXa in flow, steady state analysis
T1 construct: also called FIXa; F IXa
From the text: Polyclonal anti-mouse Fc antibodies were immobilized on a CM5 sensor chip and saturated with the respective monoclonal antibody. As a reference, a non-specific mouse IgG was used.

human factor IXa [3] = molecular target: T1, human factor IXa; experiment: cell-based or functional assay
human factor IXa [4] = molecular target: T1, human factor IXa; experiment: cell-based or functional assay; remark: listed apart in the source
bovine FIX = molecular target: T2, bovine FIX (bovine, UniProt P00741 47-462); experiment: ELISA and Western blot
T2 construct: also called bovine factor IX

murine FIX = molecular target: T3, murine FIX (murine, UniProt P16294 47-471); experiment: ELISA and Western blot
T3 construct: also called murine factor IX
T3 sequence (P16294 47-471 limits assumed): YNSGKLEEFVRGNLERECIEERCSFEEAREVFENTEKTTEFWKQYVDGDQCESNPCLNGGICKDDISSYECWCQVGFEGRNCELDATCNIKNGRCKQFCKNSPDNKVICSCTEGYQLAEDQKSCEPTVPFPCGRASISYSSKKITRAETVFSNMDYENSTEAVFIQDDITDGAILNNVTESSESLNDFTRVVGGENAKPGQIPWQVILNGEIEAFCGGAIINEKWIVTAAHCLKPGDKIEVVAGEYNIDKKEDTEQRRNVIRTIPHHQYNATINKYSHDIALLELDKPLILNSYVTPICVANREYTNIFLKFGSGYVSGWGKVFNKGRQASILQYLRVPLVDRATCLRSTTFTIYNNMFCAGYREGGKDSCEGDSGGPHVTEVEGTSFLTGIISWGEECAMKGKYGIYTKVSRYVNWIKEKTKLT

T1 sequence (P00740 47-191 limits assumed, chain 1 of 2): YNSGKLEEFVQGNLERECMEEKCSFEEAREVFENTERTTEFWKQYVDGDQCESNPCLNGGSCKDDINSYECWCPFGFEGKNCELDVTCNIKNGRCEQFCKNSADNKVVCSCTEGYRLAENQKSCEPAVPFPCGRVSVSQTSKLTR
T1 sequence (P00740 227-461 limits assumed, chain 2 of 2): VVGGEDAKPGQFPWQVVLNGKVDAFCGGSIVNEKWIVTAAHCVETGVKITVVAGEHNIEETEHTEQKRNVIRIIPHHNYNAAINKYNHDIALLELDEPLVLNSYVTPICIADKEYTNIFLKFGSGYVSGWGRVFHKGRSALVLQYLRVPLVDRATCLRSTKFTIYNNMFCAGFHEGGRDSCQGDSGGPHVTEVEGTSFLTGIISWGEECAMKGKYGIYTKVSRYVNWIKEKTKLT
T2 sequence (P00741 47-462 limits assumed): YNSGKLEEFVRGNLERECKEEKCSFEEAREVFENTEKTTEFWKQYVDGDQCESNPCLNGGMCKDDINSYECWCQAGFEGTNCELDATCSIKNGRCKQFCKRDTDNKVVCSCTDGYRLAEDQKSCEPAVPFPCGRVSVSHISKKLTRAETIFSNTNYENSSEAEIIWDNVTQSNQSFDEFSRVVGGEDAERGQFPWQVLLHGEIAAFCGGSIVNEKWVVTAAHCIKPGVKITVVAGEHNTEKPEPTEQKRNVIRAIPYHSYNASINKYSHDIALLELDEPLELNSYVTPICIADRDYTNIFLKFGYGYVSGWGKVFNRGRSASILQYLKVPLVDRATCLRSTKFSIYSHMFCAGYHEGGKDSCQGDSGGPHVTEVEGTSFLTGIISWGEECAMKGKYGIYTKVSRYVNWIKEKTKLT
Chain of factor VIII / factor VIIIa (recombinant human coagulation factor VIII, thrombin-activated) (P00451 20-2351): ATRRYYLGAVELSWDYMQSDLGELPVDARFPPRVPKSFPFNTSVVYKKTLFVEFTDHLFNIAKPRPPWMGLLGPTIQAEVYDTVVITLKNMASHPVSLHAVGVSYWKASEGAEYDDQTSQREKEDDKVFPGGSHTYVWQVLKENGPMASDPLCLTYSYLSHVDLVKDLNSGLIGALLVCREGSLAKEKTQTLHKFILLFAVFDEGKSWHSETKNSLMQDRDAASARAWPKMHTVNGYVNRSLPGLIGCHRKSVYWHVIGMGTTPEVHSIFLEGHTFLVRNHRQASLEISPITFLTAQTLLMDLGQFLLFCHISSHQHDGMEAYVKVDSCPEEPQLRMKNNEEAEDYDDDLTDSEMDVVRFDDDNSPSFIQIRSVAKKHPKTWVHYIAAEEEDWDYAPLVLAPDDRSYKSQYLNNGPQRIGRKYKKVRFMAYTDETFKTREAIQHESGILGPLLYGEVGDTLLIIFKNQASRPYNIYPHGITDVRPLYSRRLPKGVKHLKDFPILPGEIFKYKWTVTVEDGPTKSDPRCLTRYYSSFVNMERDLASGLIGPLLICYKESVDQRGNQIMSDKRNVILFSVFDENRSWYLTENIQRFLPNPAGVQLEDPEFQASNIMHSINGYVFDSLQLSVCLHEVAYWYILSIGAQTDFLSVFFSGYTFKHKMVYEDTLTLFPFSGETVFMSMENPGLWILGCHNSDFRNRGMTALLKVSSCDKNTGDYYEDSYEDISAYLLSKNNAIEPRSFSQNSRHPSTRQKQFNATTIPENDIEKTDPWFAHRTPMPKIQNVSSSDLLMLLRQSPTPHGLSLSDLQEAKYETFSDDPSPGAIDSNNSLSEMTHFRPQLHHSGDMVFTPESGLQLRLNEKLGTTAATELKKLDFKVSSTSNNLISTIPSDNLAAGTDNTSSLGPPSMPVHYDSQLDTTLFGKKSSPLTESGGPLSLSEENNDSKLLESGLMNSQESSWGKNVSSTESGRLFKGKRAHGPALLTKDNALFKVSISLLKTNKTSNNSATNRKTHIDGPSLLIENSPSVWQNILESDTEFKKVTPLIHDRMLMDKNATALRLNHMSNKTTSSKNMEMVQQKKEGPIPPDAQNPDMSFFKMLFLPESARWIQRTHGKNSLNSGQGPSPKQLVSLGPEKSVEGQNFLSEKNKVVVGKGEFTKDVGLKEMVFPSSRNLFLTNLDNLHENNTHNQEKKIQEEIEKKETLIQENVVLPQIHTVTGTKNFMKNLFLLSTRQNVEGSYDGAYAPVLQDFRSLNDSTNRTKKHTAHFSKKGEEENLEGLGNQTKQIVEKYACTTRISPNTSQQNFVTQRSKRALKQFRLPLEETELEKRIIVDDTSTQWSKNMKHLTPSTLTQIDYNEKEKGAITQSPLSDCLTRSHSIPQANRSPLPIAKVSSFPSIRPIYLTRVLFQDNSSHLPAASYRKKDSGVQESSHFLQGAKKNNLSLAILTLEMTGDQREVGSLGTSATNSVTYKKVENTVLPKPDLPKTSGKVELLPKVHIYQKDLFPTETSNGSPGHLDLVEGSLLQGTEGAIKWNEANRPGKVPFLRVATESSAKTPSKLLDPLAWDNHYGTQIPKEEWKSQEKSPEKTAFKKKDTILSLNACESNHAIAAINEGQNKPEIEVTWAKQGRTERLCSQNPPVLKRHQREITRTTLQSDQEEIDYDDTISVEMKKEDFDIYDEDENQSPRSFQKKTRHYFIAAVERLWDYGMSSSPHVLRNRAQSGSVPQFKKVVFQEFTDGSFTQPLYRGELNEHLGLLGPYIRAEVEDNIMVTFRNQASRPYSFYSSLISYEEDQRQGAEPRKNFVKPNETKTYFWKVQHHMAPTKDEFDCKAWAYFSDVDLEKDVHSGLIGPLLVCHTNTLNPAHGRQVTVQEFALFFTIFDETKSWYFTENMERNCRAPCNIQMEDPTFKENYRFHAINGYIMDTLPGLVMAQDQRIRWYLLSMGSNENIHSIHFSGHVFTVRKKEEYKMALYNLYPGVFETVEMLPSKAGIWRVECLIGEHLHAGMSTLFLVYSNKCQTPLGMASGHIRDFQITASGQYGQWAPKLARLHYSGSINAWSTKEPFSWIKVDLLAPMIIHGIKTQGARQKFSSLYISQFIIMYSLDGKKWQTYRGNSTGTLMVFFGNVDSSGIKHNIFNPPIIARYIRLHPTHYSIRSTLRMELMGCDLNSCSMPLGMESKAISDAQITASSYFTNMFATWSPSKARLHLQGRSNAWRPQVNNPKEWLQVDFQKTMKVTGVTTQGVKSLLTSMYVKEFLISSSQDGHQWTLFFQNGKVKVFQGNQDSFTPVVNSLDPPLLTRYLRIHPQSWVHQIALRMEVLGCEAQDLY

Molecule: human factor IXa
decrease of Km of FIXa [1]: approximately 2.5-fold

Kd (human factor IXa [2]): 0.477 nM
KM (human factor IXa [3]): 0.048 µM
kcat (human factor IXa [3]): 0.000883 s⁻¹
kcat/KM (human factor IXa [3]): 18300 M⁻¹ s⁻¹
enhancement of the rate of FXa formation (human factor IXa [4]): 10 fold
increase of kcat of FX activation by FIXa (human factor IXa [4]): ~10 fold
binding result (bovine FIX): binds
binding result (murine FIX): no binding
B1: antibody 224F3 (antibody, V domains shown)
VH: QVQMQQSGAELVKPGASVKLSCKASGYTFTSQDINWVRQRPEQGLEWIGWIFPGDGSTKYNEKLKGKATLTTDKSSSTAFMQLSRLTSEDSAVYFCARSAYYRYDGSYYYAMDYWGQGTSVTVSS
VL: QIVLTQSPAIMSASLGEEITLTCSASSSVSYMLWYQQKSGTSPKLLIYTTSNLASGVPSRFSGTGSGTFYSLTISSVEAEDAADYYCHQWSSYPRTFGGGTKLEIKR
